Laboratory results reported in US20150315621.

Target: Aspergillus terreus LovB: Lovastatin nonaketide synthase

B1: Aspergillus terreus LovG: Esterase (protein)
chain: HHHHHHMRYQASPALAKAPRALLCIHGAGCSPAIFRVQLSKLRAALREDFEFVYVTAPFPSSAGPGILPVFADLGPYYSWFESSSGNNNNGPSVGERLAAVHDPIRRTIVDWQTQHPHIPIVGAIGFSEGALVTTLLLWQQQMGRLPWLPRMSVAMLICPWYQDEASQYMRNEVMENHDDDHDSKDTEWQEELVIRIPTLHLQGRDDFALAGSKMLVARHFSPREAQVLEFAGQHQFPNRPRDVLEVINRFRKLCVTVQTLE
offloaded aberrant products 8-10 from LovB in vitro in the absence of LovC (HPLC at 330 nm, LC-MS): Upon addition of LovG at equimolar concentration to LovB, the in vitro assay mixture turned significantly more yellow and the extract contained high amounts of offloaded products 8-10, in addition to 6 and 7 | turnover rate of dihydromonacolin L acid (2), in vitro with equimolar (10 µM) LovB, LovC and LovG: the turnover rate of dihydromonacolin L acid (2) was estimated to be ˜0.12 hour^-1
